Target: the molecule itself
Experiment: cross-linking

B1: TolC Y362F/R367E (YFRE^His), leaky/open mutant with a C-terminal 6His-tag (natural protein)
chain: ENLMQVYQQARLSNPELRKSAADRDAAFEKINEARSPLLPQLGLGADYTYSNGYRDANGINSNATSASLQLTQSIFDMSKWRALTLQEKAAGIQDVTYQTDQQTLILNTATAYFNVLNAIDVLSYTQAQKEAIYRQLDQTTQRFNVGLVAITDVQNARAQYDTVLANEVTARNNLDNAVEQLRQITGNYYPELAALNVENFKTDKPQPVNALLKEAEKRNLSLLQARLSQDLAREQIRQAQDGHLPTLDLTASTGISDTSYSGSKTRGAAGTQYDDSNMGQNKVGLSFSLPIYQGGMVNSQVKQAQYNFVGASEQLESAHRSVVQTVRSSFNNINASISSINAYKQAVVSAQSSLDAMEAGFSVGTETIVDVLDATTTLYNAKQELANARYNYLINQLNIKSALGTLNEQDLLALNNALSKPVSTNPENVAPQTPEQNAIADGYAPDSPAPVVQQTSARTTTSNGHNPFRN
Which “stoichiometry N” value does the source give for B1 here?
The value was 3.
